The results in this text go back to paper PMC9393700.

Common to all, as to test: SEC; Superdex S200 16/600 column; purified F proteins (Figure 2A)
A general note: SEC sorts molecules by how far they enter the pores of the column.

Test [1] has as its target RSV A2 F DsCav1 (trimer) (respiratory syncytial virus A2).
Test [2] addresses RSV head hMPV stem construct 1 (RHMS-1) (respiratory syncytial virus (RSV-A in Figure 1B) | human metapneumovirus (hMPV-A1 in Figure 1B)) (UniProt P03420).
Test [3] deals with trypsin-treated hMPV B2 F (human metapneumovirus B2).

As a reminder, the stoichiometry N is a count of units in the complex or per binding partner. Consider “RSV A2 F DsCav1 (trimer) (natural protein)”, for which the stoichiometry N in test [1] amounted to 3.
For the substance “RSV head hMPV stem construct 1 (RHMS-1) (from UniProt P03420 1-25; P03420 55-314)”, the stoichiometry N in test [2] came to 3.
Substance “trypsin-treated hMPV B2 F (natural protein)” showed a stoichiometry N in test [3] of 3.
